How the values were obtained:
[1] = biological target: D-lactate dehydrogenase (DLD) from Gluconobacter oxydans (Gluconobacter oxydans); assay: SEC; Superdex 200 10/300 GL, 25 °C, 0.75 ml/min, 150 mM NaCl, 0.1 mM DTT, 1 mM EDTA, 25 mM Tris-HCl pH 7.5; assembly state against gel filtration standards
[2] = biological target: L-lactate oxidase (LOX) derived from Enterococcus faecium (Enterococcus faecium); assay: as above
[3] = biological target: Poly-L-lysine (PLL) hydrobromide (molecular weight: 4000–15,000 Da)
[4] = biological target: the molecule itself; assay: SEC; Superdex 200 10/300 GL, 25 °C, 0.75 ml/min, 150 mM NaCl, 0.1 mM DTT, 1 mM EDTA, 25 mM Tris-HCl pH 7.5; assembly state against gel filtration standards

Q: How did the stoichiometry N [1] turn out when “D-lactate dehydrogenase (DLD) from Gluconobacter oxydans (enzyme)” was run?
A: 4

Q: “L-lactate oxidase (LOX) derived from Enterococcus faecium (enzyme)” was tested. Which stoichiometry N [2] did it give?
A: 4

Q: What about the enzyme activity (DCIP assay, 25 nM LOX) with 1 mM PLL against without PLL, at pH 7 and pH 8 [3] of the same molecule?
A: 7.5 fold

B1: Acetaldehyde dehydrogenase (ALDH) from Sphingomonas wittichii (enzyme)
chain: AQAPITGGRPFADKPFKVEEVARFDSPWAMTFLPGGHMLVTEKAGRLLLLSPDGARRTAVEGVPAVDSSGQGALGEVVAHPDFATNGLVYFSYSAPGSPNGIVLARGKLVGDLGGARLEGVTTLYRAHPLKSGGHYAGRIAFSPDGHLFFSMGERQKFTPAQEPDGVLGKVVRLTMDGQPAPGNPLAAKGFDPAVWSYGHRNPLGLAFDLEGRLWDAEMGPKGGDEVNLILPGRNYGWPIVSNGDHYDGKPIPDHVTRPEFEAPKVSWNPSISPSSLLVYSGKLFPQWRGKALVGALSGEMLILVDLGEEGAKEEARYAMGQRIRAVDQGPDGAVYVLEDKAGGRLLRLMPAG
Q: How did the “stoichiometry N” value [4] turn out when B1 was run?
A: 2

B2: Glucose dehydrogenase (GDH) from Acinetobacter calcoaceticus (enzyme, UniProt P13650 25-478, looked up)
chain: DVPLTPSQFAKAKSENFDKKVILSNLNKPHALLWGPDNQIWLTERATGKILRVNPESGSVKTVFQVPEIVNDADGQNGLLGFAFHPDFKNNPYIYISGTFKNPKSTDKELPNQTIIRRYTYNKSTDTLEKPVDLLAGLPSSKDHQSGRLVIGPDQKIYYTIGDQGRNQLAYLFLPNQAQHTPTQQELNGKDYHTYMGKVLRLNLDGSIPKDNPSFNGVVSHIYTLGHRNPQGLAFTPNGKLLQSEQGPNSDDEINLIVKGGNYGWPNVAGYKDDSGYAYANYSAAANKSIKDLAQNGVKVAAGVPVTKESEWTGKNFVPPLKTLYTVQDTYNYNDPTCGEMTYICWPTVAPSSAYVYKGGKKAITGWENTLLVPSLKRGVIFRIKLDPTYSTTYDDAVPMFKSNNRYRDVIASPDGNVLYVLTDTAGNVQKDDGSVTNTLENPGSLIKFTYKAK
notes: PQQ-dependent glucose dehydrogenase, Acinetobacter calcoaceticus; expression vector pET22b-acGDH, a gift from Aisin Cosmos R&D; printed mass 53.7 kDa, calculated pI 8.93; also called acGDH
Q: Which “stoichiometry N” value [4] does the source give for B2 here?
A: 4

From paper PMC10474089, “Activation of oxidoreductases by the formation of enzyme assembly” (Scientific Reports, 2023)
